The record followed here is article PMC3979721, “Biochemical Properties of Ectoine Hydroxylases from Extremophiles and Their Wider Taxonomic Distribution among Microorganisms” (PLoS ONE, 2014).

Substrate in data set [1]: CC1=N[C@H](C(=O)O)CCN1
Kind of data set: HPLC assay of 5-hydroxyectoine formation. Format: biochemical, Acidiphilium cryptum. The following applies: apparent, with 2-oxoglutarate, Fe(II), O2, optimum pH 8.0, 32 °C and optimised salt, kcat per homodimer. An excerpt:
(§1) HPLC assay of 5-hydroxyectoine formation on EctD from A. cryptum

Substrate in data set [2]: O=C(O)CCC(=O)C(=O)O
Kind of data set: HPLC assay of 5-hydroxyectoine formation. The settings on record: apparent, co-substrate, with ectoine, Fe(II), O2, pH 8.0, 32 °C. Format: biochemical, Acidiphilium cryptum.
Excerpt: as §1

Substrate in data set [3]: CC1=N[C@H](C(=O)O)CCN1
Kind of data set: HPLC assay of 5-hydroxyectoine formation. Format: biochemical, Stutzerimonas stutzeri. The settings on record: apparent, with 2-oxoglutarate, Fe(II), O2, optimum pH 7.5, 35 °C and optimised salt, kcat per homodimer. An excerpt: (§2) HPLC assay of 5-hydroxyectoine formation on EctD from P. stutzeri

Substrate in data set [4]: O=C(O)CCC(=O)C(=O)O
Kind of data set: HPLC assay of 5-hydroxyectoine formation. The following applies: apparent, co-substrate, with ectoine, Fe(II), O2, pH 7.5, 35 °C. The data set is classed as biochemical, Stutzerimonas stutzeri.
Excerpt: as §2

Data set [5] concerns the molecule itself. Kind of data set: SEC; 1 ml of protein at 5 mg/ml on a HiLoad 16/600 Superdex 200 pg column, 20 mM TES-buffer containing 150 NaCl; size against standards of 29, 66 and 150 kDa (Fig. S6). A general note: Size exclusion chromatography separates by hydrodynamic size, large species first.
Substrate in data set [6]: CC1=N[C@H](C(=O)O)CCN1
Kind of data set: HPLC assay of 5-hydroxyectoine formation. The settings on record: apparent, with 2-oxoglutarate, Fe(II), O2, optimum pH 8.0, 40 °C and optimised salt, kcat per homodimer. The data set is classed as biochemical, Sphingopyxis alaskensis. An excerpt: (§3) HPLC assay of 5-hydroxyectoine formation on EctD from S. alaskensis

Substrate in data set [7]: O=C(O)CCC(=O)C(=O)O
Kind of data set: HPLC assay of 5-hydroxyectoine formation. Format: biochemical, Sphingopyxis alaskensis. The following applies: apparent, co-substrate, with ectoine, Fe(II), O2, pH 8.0, 40 °C.
Excerpt: as §3

Substrate in data set [8]: CC1=N[C@H](C(=O)O)CCN1
Kind of data set: HPLC assay of 5-hydroxyectoine formation. The data set is classed as biochemical, Virgibacillus salexigens. The following applies: apparent, with 2-oxoglutarate, Fe(II), O2, TES buffer, optimum pH 7.5, 32 °C and optimised salt, kcat per homodimer. The source says:
(§4) HPLC assay of 5-hydroxyectoine formation on EctD from V. salexigens (VsEctD)

Substrate in data set [9]: O=C(O)CCC(=O)C(=O)O
Kind of data set: HPLC assay of 5-hydroxyectoine formation. Format: biochemical, Virgibacillus salexigens. The settings on record: apparent, co-substrate, varied 0-50 mM, with ectoine, Fe(II), O2, pH 7.5, 32 °C.
Excerpt: as §4

Substrate in data set [10]: CC1=N[C@H](C(=O)O)CCN1
Kind of data set: HPLC assay of 5-hydroxyectoine formation. The data set is classed as biochemical, Halomonas elongata. The following applies: apparent, with 2-oxoglutarate, Fe(II), O2, optimum pH 8.0, 32 °C and optimised salt, kcat per homodimer. The source says:
(§5) HPLC assay of 5-hydroxyectoine formation on EctD from H. elongata

Substrate in data set [11]: O=C(O)CCC(=O)C(=O)O
Kind of data set: HPLC assay of 5-hydroxyectoine formation. The data set is classed as biochemical, Halomonas elongata. The following applies: apparent, co-substrate, with ectoine, Fe(II), O2, pH 8.0, 32 °C.
Excerpt: as §5

B1: EctD from A. cryptum (Acidiphilium cryptum JF-5) (protein)
chain: MDDLYPSRREPTPSLLPRHDPVVHGRWAPGAPLSDEQTRFYDTNGYLVLENVFDPAEIALLQSGSMDLLANPAGLDRETIITERGSDEVRSIFAIHAQNELLGRLAADSRIAGVARFLLDDDVYIHQSRLNYKPGFDGKEFYWHSDFETWHVEDGMPRMRALSMSILLAENTANNGPLMVIPGSHRKYLTCVGETPENHYRSSLKKQEYGVPDREMLTALASDHGIVAPTGKAGTVVLFDCNTMHGSNGNITPFPRSNAFFVFNAKANSLVEPFGPKSRRPDFIADRAFTTVDIVKGPLVRRERAA
notes: homodimer
For the protein B1, in data set [1], the Michaelis constant (Km) turned out to be 10.0 ± 0.6 mM, the kcat was 3.4 s⁻¹ and the catalytic efficiency (kcat/Km) was found to be 340 M⁻¹ s⁻¹. In [2], the Km turned out to be 4.1 ± 0.4 mM.

B2: EctD from P. stutzeri (Stutzerimonas stutzeri A1501) (protein)
chain: MQADLYPSRQEDQPSWQERLDPVVYRSDLENAPIAAELVERFERDGYLVIPNLFSADEVALFRAELERMRQDPAVAGSGKTIKEPDSGAIRSVFAIHKDNELFARVAADERTAGIARFILGGDLYVHQSRMNFKPGFTGKEFYWHSDFETWHIEDGMPRMRCLSCSILLTDNEPHNGPLMLMPGSHKHYVRCVGATPENHYEKSLRKQEIGIPDQNSLSELASRFGIDCATGPAGSVVFFDCNTMHGSNGNITPSARSNLFYVYNHVDNAVQAPFCEQKPRPAFVAERENFKPLDIRPQQYL
notes: homodimer
On to B2, for which, in data set [3], the Michaelis-Menten constant (Km) came to 6.2 ± 0.4 mM, the kcat came to 8.9 s⁻¹ and the kcat/Km came out at 1440 M⁻¹ s⁻¹. In data set [4], the Michaelis constant (Km) was 4.6 ± 0.5 mM.

B3: Sphingopyxis alaskensis EctD protein (ectoine hydroxylase) (enzyme, UniProt Q1GNW5 1-306, looked up)
chain: MQDLYPSRQRADAEMRPRLDPVVHSEWTNDAPISARQAAAFDRDGYIVLEDIFSADEVAFLQKAAGNLLADPAALDADTIVTEPQSNEIRSIFEIHAQSPVMARLAADARLADVARFLLGDEVYIHQSRLNYKPGFKGREFYWHSDFETWHVEDGMPRMRALSMSVLLAENTPHNGPLMVIPGSHRTYLTCVGETPDDHYLSSLKKQEYGVPDEESLAELAHRHGIVAPTGKPGTVILFDCNLMHGSNGNITPFPRANAFLVYNAVSNRLEKPFGVEKPRPWFLARRGEPAALRVERGPLVETVPA
notes: Ectoine hydroxylase EctD of Sphingopyxis alaskensis; ectD gene amplified from chromosomal DNA; 35.29 kDa with the nine-residue Strep-tag II peptide; Contains about 0.87-0.96 mol iron per mol protein; also called EctD from S. alaskensis; S. alaskensis enzyme; not shown: Strep-tag II, C-terminal, kept
Consider B3, for which, in data set [5], the “stoichiometry N” value stood at 2. Also, in [6], the Michaelis-Menten constant (Km) is 9.8 ± 0.5 mM, the kcat came out at 1.2 s⁻¹ and the specificity constant (kcat/Km) was determined as 120 M⁻¹ s⁻¹. In addition, the Km in data set [7] stood at 2.7 ± 0.3 mM.

B4: EctD from V. salexigens (VsEctD) (Virgibacillus salexigens) (protein)
chain: MEDLYPSRQNNQPKILKRKDPVIYTDRSKDNQAPITKEQLDSYEKNGFLQIKNFFSEDEVIDMQKAIFELQDSIKDVASDKVIREPESNDIRSIFHVHQDDNYFQDVANDKRILDIVRHLLGSDVYVHQSRINYKPGFKGKEFDWHSDFETWHVEDGMPRMRAISVSIALSDNYSFNGPLMLIPGSHNYFVSCVGETPDNNYKESLKKQKLGVPDEESLRELTRIGGGISVPTGKAGSVTLFESNTMHGSTSNITPYPRNNLFMVYNSVKNRLVEPFSGGEKRPEYIAVREKQPVYSAVN
notes: homodimer
Regarding B4, in data set [8], the Km was 5.9 ± 0.3 mM, the kcat came out at 7.7 s⁻¹ and the specificity constant (kcat/Km) turned out to be 1310 M⁻¹ s⁻¹. Also, the Km in data set [9] is 4.9 ± 0.3 mM.

B5: EctD from H. elongata (Halomonas elongata DSM 2581) (protein)
chain: MSVQTSSNRPLPQANLHIATETPEADSRIRSAPRPGQDPYPTRLSEPLDLPWLNRREPVVKGEEADGPLSAAQLDTFERQGFIFEPDFLKGEELEALRHELNALLARDDFRGRDFAITEPQGNEIRSLFAVHYLSRVFSRLANDERLMGRARQILGGEPYVHQSRINYKPGFEGKGFNWHSDFETWHAEDGMPAMHAVSASIVLTDNHTFNGPLMLVPGSHRVFVPCLGETPEDHHRQSLKTQEFGVPSRQALRELIDRHGIEAPTGAAGGLLLFDCNTLHGSNANMSPDPRSNAFFVYNRRDNRCVEPYAASKRRPRFLAHEPDEAWSPDG
notes: homodimer
For the protein B5, in data set [10], the Michaelis constant (Km) is 5.7 ± 0.6 mM, the kcat turned out to be 2.8 s⁻¹ and the kcat/Km was 490 M⁻¹ s⁻¹. For the same protein, in data set [11], the Km turned out to be 4.8 ± 0.4 mM, the catalytic constant (kcat) turned out to be 2.8 s⁻¹ and the catalytic efficiency (kcat/Km) is 490 M⁻¹ s⁻¹.

A word on the Km: it is the substrate concentration at which the rate is half of its maximum. Usually kcat stands for the maximal rate divided by the concentration of active sites. As a reminder, the kcat/Km is the second-order rate constant that governs catalysis at low substrate concentration. The term stoichiometry N denotes a count of units in the complex or per binding partner.
